Source: patent US20170369591

System: topoisomerase I
Sequence (chain, as listed by the source): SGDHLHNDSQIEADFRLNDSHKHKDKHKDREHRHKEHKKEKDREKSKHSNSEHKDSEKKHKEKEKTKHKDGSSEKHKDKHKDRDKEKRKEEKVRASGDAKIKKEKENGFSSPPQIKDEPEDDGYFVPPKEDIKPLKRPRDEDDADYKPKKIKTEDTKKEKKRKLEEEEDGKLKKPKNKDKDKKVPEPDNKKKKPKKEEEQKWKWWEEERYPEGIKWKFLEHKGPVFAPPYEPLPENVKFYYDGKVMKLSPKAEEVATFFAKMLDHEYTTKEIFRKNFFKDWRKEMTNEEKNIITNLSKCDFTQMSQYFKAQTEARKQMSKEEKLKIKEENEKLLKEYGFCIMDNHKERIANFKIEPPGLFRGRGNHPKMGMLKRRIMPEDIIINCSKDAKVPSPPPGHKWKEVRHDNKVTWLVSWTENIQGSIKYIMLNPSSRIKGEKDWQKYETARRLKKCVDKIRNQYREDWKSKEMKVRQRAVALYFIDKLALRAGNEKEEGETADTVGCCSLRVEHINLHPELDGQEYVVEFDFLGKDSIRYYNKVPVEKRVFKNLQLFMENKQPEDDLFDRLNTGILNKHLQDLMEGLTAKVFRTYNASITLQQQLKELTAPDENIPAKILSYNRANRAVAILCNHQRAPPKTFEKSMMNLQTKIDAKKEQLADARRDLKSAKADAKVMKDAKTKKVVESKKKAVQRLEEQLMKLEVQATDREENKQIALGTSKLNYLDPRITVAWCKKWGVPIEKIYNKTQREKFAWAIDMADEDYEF

BRCA1-Flag/BARD1
in vitro ubiquitination, immunoblot with anti-ubiquitin: showed ubiquitination of topo I by BRCA 1
